From publication PMC7817830, “SUMOylation disassembles the tetrameric pyruvate kinase M2 to block myeloid differentiation of leukemia cells” (Cell Death & Disease, 2021)

Biological target: the molecule itself
Experiment: SEC; cell lysate of 32D BCR-ABL cells on Superdex 200 10/300GL, 50 mM phosphate, 0.15 M NaCl, pH 7.2; fractions by UV absorbance and western blot

B1: Flag-tagged K270R mutant PKM2 expressed in 32D BCR-ABL cells (enzyme)
chain: not shown
notes: pyruvate kinase, M2 isoform (PKM2); also called PKM2^K270R; KR; source: 32D BCR-ABL cells, ectopically expressed, in lysate
stoichiometry N: 4
